We go through three molecules from patent US7514534 (DYAX, dated 2009).

The labels stand for the following.
T1: MMP-26 catalytic domain, tagged with hexa-histidine (human, UniProt Q9NRE1 90-261)
T1 construct: the forward primer adds Met-Ala before it; also called MMP-26 target protein; Matrilysin-2; not shown: Also any N-terminal residues added by the forward primer (Met-Ala according to our card; the primers were not visible to me)
T1 sequence: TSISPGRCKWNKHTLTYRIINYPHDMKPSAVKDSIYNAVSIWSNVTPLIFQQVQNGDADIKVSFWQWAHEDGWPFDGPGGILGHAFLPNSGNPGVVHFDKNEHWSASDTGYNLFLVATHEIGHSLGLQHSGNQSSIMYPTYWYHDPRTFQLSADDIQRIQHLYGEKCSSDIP

B1: A07 (antibody, human IgG4, V domains shown)
VH: EVQLLESGGGLVQPGGSLRLSCAASGFTFSEYNMMWVRQAPGKGLEWVSVISPSGGGTLYADSVKGRFTISRDNSKNTLYLQMNSLRAEDTAVYYCARDLNNSSPPDSNDAFDIWGRGTMVTVSS
VL: QSELTQPPSASGSPGQSVTISCTGTSSDVGGYNYVSWYQQHPDKAPKLLIYEVTQRPSGVPDRFSGSRSGNTASLTVSGLQAEDEADYYCSSYAGRNNLYVFGPGTKVTVLG
notes: whole human IgG4
B2: A08 (antibody, human IgG4, V domains shown)
VH: EVQLLESGGGLVQPGGSLRLSCAASGFTFSVYDMPWVRQAPGKGLEWVSVIYPSGGFTRYADSVKGRFTISRDNSKNTLYLQMNSLRAEDTAVYYCAADPTIQLWAYYYGMDVWGQGTTVTVSS
VL: QSVLTQPPSVSGTPGQRVTISCSGGYPNMGSNYAHWYQQLPGTAPKLLIYNDNQRPSGVPDRFSGSKSGTSASLAISGLRSEDEADYYCAAWDDSLSGPVFGGGTKLTVLG
notes: whole human IgG4
B3: A09 (antibody, human IgG4, V domains shown)
VH: EVQLLESGGGLVQPGGSLRLSCAASGFTFSWYDMYWVRQAPGKGLEWVSSIYSSGGYTAYADSVKGRFTISRDNSKNTLYLQMNSLRAEDTAVYYCAKDRDPCSRTTCYNWFDPWGQGTLVTVSS
VL: QSELTQPPSASGTPGQRVTISCSGGSSNIGSNFVYWYRQLPGTAPKLLIYRNYQRPSGVPDRFSGSKSGTSASLAISGLLSEDEADYYCAAWDDNVGGVFGSGTKVTVLG
notes: whole human IgG4

For the first assay, the target named is T1, MMP-26 catalytic domain, tagged with …. The assay is described as follows: bead-based ELISA, MMP-26 on nickel beads, IgG4 culture supernatant. (In an ELISA, binding on a coated surface is turned into a signal by an enzyme label.)
Turning to B1, the “F > B (fold over background)” value stood at 8.38 fold over background.

For B2, the “F > B (fold over background)” value came to 1.94 fold over background.

As to B3, the “F > B (fold over background)” value stood at 2.5 fold over background.

The target of the next assay is T2, MMP-9 (UniProt P14780 107-707, limits assumed).
T2 construct: also called gelatinase
T2 sequence (P14780 107-707 limits assumed): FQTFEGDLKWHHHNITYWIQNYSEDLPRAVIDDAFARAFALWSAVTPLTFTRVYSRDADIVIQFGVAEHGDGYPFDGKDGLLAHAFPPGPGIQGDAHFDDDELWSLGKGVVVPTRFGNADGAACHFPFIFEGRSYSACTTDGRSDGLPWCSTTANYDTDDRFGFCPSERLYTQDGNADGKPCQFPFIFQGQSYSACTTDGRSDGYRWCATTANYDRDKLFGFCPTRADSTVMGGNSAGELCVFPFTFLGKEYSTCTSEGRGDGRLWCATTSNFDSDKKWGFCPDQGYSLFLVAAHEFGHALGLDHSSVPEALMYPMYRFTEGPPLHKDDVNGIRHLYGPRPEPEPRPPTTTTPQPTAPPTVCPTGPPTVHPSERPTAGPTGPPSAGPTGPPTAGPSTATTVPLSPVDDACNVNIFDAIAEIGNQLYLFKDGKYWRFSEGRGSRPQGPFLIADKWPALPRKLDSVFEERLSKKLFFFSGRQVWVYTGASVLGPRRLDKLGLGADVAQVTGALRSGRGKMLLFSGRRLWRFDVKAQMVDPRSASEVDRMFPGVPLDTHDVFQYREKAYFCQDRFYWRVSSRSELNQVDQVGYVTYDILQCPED
The assay is described as follows: cross-reactivity ELISA on coated MMP.
On to B1, for which the binding result is on record as “no binding (tested: 2 µg/ml)”.

Turning to B2, the binding result is “no binding (tested: 2 µg/ml)”.

For B3, the binding result is recorded as “no binding (tested: 2 µg/ml)”.

The target in another assay is T3, MMP-3 (UniProt P08254 100-477, limits assumed).
T3 construct: also called stromelysin-1
T3 sequence (P08254 100-477 limits assumed): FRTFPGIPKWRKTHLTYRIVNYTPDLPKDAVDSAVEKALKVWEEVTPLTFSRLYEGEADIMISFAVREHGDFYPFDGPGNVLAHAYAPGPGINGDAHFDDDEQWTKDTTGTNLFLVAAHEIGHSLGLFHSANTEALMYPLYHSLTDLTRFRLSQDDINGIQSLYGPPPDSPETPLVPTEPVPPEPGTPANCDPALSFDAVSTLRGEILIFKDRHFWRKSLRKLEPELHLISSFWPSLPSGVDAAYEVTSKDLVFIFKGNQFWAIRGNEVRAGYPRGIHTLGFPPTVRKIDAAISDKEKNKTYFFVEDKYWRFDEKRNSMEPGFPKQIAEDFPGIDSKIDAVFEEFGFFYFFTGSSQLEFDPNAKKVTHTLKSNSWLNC
The assay is described as follows: cross-reactivity ELISA on coated MMP.
As for B1, the binding result is “no binding (tested: 2 µg/ml)”.

Consider B2, for which the binding result is on record as “no binding (tested: 2 µg/ml)”.

As to B3, the binding result was “no binding (tested: 2 µg/ml)”.
